Assay results from patent US6531306.
Read-outs that look alike come from different tables or passages of the source.

What was measured:
[1] = tested on: MAbs specific for DNA-dependent ATPase A
[2] = target: T1, Active DNA-dependent ATPase A Domain (ADAAD, 82 kDa) (Bos taurus) (UniProt Q9TTA5); settings: blunt-ended stem-loop, dG 18.4; ATP hydrolysis; SEQ:1 inferred
T1 sequence: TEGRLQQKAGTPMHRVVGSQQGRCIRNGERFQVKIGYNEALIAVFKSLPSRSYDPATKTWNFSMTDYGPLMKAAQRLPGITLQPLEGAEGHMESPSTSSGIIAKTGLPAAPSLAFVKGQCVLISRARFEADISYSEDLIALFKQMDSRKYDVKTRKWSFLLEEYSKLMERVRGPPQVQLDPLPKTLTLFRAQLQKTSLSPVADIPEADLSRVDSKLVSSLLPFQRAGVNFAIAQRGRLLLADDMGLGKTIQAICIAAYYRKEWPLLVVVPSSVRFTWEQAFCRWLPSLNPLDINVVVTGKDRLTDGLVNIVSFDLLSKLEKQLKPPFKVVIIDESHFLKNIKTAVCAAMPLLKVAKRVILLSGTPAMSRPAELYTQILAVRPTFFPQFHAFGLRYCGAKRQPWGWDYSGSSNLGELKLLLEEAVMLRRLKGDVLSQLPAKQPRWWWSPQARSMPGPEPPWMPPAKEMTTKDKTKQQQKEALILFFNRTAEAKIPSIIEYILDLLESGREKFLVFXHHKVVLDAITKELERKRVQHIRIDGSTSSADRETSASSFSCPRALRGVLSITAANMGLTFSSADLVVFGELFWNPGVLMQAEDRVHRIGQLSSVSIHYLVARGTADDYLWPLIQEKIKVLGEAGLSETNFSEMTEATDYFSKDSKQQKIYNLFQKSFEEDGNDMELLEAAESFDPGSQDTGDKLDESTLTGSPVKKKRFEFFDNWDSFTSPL

[3] = target: T1, Active DNA-dependent ATPase A Domain (ADAAD, 82 kDa) (Bos taurus); settings: ATP hydrolysis
[4] = target: T1, Active DNA-dependent ATPase A Domain (ADAAD, 82 kDa) (Bos taurus); settings: ATP hydrolysis; remark: listed apart in the source
[5] = target: T1, Active DNA-dependent ATPase A Domain (ADAAD, 82 kDa) (Bos taurus); settings: ATP hydrolysis; remark: listed apart in the source
[6] = target: T1, Active DNA-dependent ATPase A Domain (ADAAD, 82 kDa) (Bos taurus); settings: apparent binding constant from ATP hydrolysis kinetics

With DNA-dependent ATPase A the “DNA-dependent ATP hydrolysis in vitro” value [1] was “none of the MAbs demonstrate inhibition of DNA-dependent ATP hydrolysis in vitro”.
With “GCGCAATTGCGCTCGACGATTTTTTAGCGCAATTGCGC [stem-loop DNA, 12-base loop]” the activity (relative activity) [2] was 90.
With “Table 16 structure 6 AT-rich blunt-ended duplex” the activity (relative activity) [3] was 49.
With “Table 16 structure 7 blunt-ended duplex, 4 base mismatch” the activity (relative activity) [4] was 66.5.
With “Table 16 structure 8 blunt-ended duplex, 10 base mismatch” the activity (relative activity) [5] was 83.7.
In the case of stem-loop DNA, 3-base loop, the Ka [6] is reported as 2e+07 M⁻¹.
Work on stem-loop DNA, 6-base loop yielded a Ka [6] of 5e+07 M⁻¹.
Work on stem-loop DNA, 9-base loop yielded a Ka [6] of 8e+07 M⁻¹.
